Results on seven sequences are retold here after the DeepSol protein solubility set.

A short description of this data set: soluble on expression in E. coli; label from the status in PepcDB or PDB records.
Take “MNNQKQQKPTLSGQRFKTRKRDEKERFDPTQFQDCIIQGLTETGTDLEAVAKFLDASGAKLDYRRYAETLFDILVAGGMLAPGGTLADDMMRTDVCVFAAQEDLETMQAFAQVFNKLIRRYKYLEKGFEDEVKKLLLFLKGFSESERNKLAMLTGVLLANGTLNASILNSLYNENLVKEGVSAAFAVKLFKSWINEKDINAVAASLRKVSMDNRLMELFPANKQSVEHFTKYFTEAGLKELSEYVRNQQTIGARKELQKELQEQMSRGDPFKDIILYVKEEMKKNNIHFMKAFQKIVVLFYKAEVLSEEPILKWYKDAHVAKGKSVFLEQMKKFVEWLKNAEEESESEAEEGD”: the “soluble on expression in E. coli” value is recorded as “not soluble”. Take “MNNSKTNQQMNTSMGYPLTVYDECNKFQLIVPTLDANIMLWCIGQLSLLNDSNGCKHLFWQPNDKSNVRILLNNYDYGHLFKYLQCQRKCSVYIGEGTLKKYNLTISTSFDNFLDLTPSEEKESLCREDAHEDPVSPKAGSEEEISPNSTSNVVVSRECLDNFMKQLLKLEESLNKLELEQKVTNKEPNHRISGTIDIPEDRSELVNFFTELKTVKQLEDVFQRYHDYERLSQECDSKTEIASDHSKKETKIEVEPPNERSLQITMNQRDNSLYFQLFNNTNSVLAGNCKLKFTDAGDKPTTQIIDMGPHEIGIKEYKEYRYFPYALDLEAGSTIEIENQYGEVIFLGKYGSSPMINLRPPSRLSAESLQASQEPFYSFQIDTLPELDDSSIISTSISLSYDGDDNEKALTWEEL”: the “soluble on expression in E. coli” value is on record as “soluble”. Consider “MNNTDPTSFESILAGVAKLRKEKSGADTTGSQSLEIDASKLQQQEPQTSRRINSNQVINAFNQQKPEEWTDSKATDDYNRKRPFRSTRPGKTVLVNTTQKENPLLNHLKSTNWRYVSSTGINMIYYDYLVRGRSVLFLTLTYHKLYVDYISRRMQPLSRNENNILIFIVDDNNSEDTLNDITKLCMFNGFTLLLAFNFEQAAKYIEYLNL”, for which the “soluble on expression in E. coli” value is on record as “soluble”. Take “MNPALESLLADADLCVKCGLCSPHCPTYRQTADENESPRGRIALIQGWATGRLSLTAALRGPLDDCLLCRNCEAVCPAKVPYSRLVDRFRAETGQRRKPLEHHHHHH”: the “soluble on expression in E. coli” value is recorded as “not soluble”. With “MNPEEQIVTWLISLGVLESPKKTICDPEEFLKSSLKNGVVLCKLINRLMPGSVEKFCLDPQTEADCINNINDFLKGCATLQVEIFDPDDLYSGVNFSKVLSTLLAVNKATEDQLSERPCGRSSSLSAANTSQTNPQGAVSSTVSGLQRQSKTVEMTENGSHQLIVKARFNFKQTNEDELSVCKGDIIYVTRVEEGGWWEGTLNGRTGWFPSNYVREIKSSERPLSPKAVKGFETAPLTKNYYTVVLQNILDTEKEYAKELQSLLVTYLRPLQSNNNLSTVEVTSLLGNFEEVCTFQQTLCQALEECSKFPENQHKVGGCLLSLMPHFKSMYLAYCANHPSAVNVLTQHSDELEQFMENQGASSPGILILTTNLSKPFMRLEKYVTLLQELERHMEDTHPDHQDILKAIVAFKTLMGQCQDLRKRKQLELQILSEPIQAWEGEDIKNLGNVIFMSQVMVQYGACEEKEERYLMLFSNVLIMLSASPRMSGFIYQGKIPIAGTVVTRLDEIEGNDCTFEITGNTVERIVVHCNNNQDFQEWLEQLNRLIRGPASCSSLSKTSSSSCSAHSSFSSTGQPRGPLEPPQIIKPWSLSCLRPAPPLRPSAALGYKERMSYILKESSKSPKTMKKFLHKRKTERKPSEEEYVIRKSTAALEEDAQILKVIEAYCTSANFQQGHGSSTRKDSIPQVLLPEEEKLIIEETRSNGQTIMEEKSLVDTVYALKDEVRELKQENKRMKQCLEEELKSRRDLEKLVRRLLKQTDECIRGESSSKTSILP”, the “soluble on expression in E. coli” value is “soluble”. As for “MNPLFFLASPFLYLTYLIYYPNKGSFVSKPRNLQKMSSEPFKNVYLLPQTNQLLGLYTIIRNKNTTRPDFIFYSDRIIRLLVEEGLNHLPVQKQIVETDTNENFEGVSFMGKICGVSIVRAGESMEQGLRDCCRSVRIGKILIQRDEETALPKLFYEKLPEDISERYVFLLDPMLATGGSAIMATEVLIKRGVKPERIYFLNLICSKEGIEKYHAAFPEVRIVTGALDRGLDENKYLVPGLGDFGDRYYCV”, the “soluble on expression in E. coli” value is “not soluble”. “MNPLHLETLLAIIDEGSFEDAAFALGISPSAVSQRIKALERETGRVVVRRTSPVTATDAGEVLVQSARRMALLQAETNAQLRGRIERIPLSVAVNADSLATWFRRVMASVAEMDNATLHMRIEDESHSLSLLRRGDVLGAVTGEKTPVSGCDSIALGAFRYFAVASPKLLDRYTIDGAVDWERMPVLRFGPRDGLQDRDIKRRLGEVPAGRRVNEIPSSEAFMEAARVGLGWAMLPDIQALPLLDSGEVVMLDSEVHEVPLYWQRWRLESPALERLTQAVVDAALEGLHPLSA”: the “soluble on expression in E. coli” value was “not soluble”.
